The text below walks through data of PMC9482650, “Quantitative fragmentomics allow affinity mapping of interactomes” (Nature Communications, 2022).

The target of one experiment is ARHGEF12, Q9NZN5-2. The experiment is described as follows: holdup assay. More on the design: key: below the threshold = too weak to quantify, mostly under pKd 3.1 to 4.
The target of the next experiment is T1, SNTG1, Q9NSN8.
T1 sequence (Q9NSN8 52-150, limits assumed, looked up): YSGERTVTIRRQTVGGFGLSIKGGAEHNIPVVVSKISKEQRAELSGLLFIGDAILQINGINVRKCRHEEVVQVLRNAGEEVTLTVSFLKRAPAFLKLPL
The experiment is described as follows: holdup assay. More on the design: key: below the threshold = too weak to quantify, mostly under pKd 3.1 to 4.

Setting [1] is: plain residues with an end cap or a label only (N-terminal biotin on a linker: ttds).
Where [2] appears, read: plain residues with an end cap or a label only (N-terminal biotin on a linker: ahx).
[3] abbreviates: plain residues with an end cap or a label only (N-terminal biotin on a linker: ado-ado).
The mark [4] stands for this setting: plain residues with an end cap or a label only (N-terminal biotin on a linker: gsgsgs; C-terminal amide).

Sequence of ARHGEF12, Q9NZN5-2 (Q9NZN5 other isoform, or with tags, fused parts or gaps): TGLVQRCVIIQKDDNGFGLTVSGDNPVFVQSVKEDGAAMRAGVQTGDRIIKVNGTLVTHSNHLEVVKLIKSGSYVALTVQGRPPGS

As a reminder, the pKd is the negative decadic logarithm of the Kd, by convention in mol/L. Regarding QFQYAKESYI [TAGAP, Q8N103], the pKd with ARHGEF12, Q9NZN5-2 (setting [1]) was 3.91; in the experiment with SNTG1, Q9NSN8 (setting [1]), 4.53.
As to KKNKDKEYYV [NRXN1, Q9ULB1], the pKd result in the experiment with ARHGEF12, Q9NZN5-2 (setting [2]) is “below the threshold”; with SNTG1, Q9NSN8 (setting [2]), “below the threshold”.
Turning to NQLAWFDTDL [CTNNB1, P35222], the pKd came out at 4.2 with ARHGEF12, Q9NZN5-2 (setting [1]) and 3.71 with SNTG1, Q9NSN8 (setting [1]).
Consider EEPEERHTEL [CES2, O00748], for which the pKd amounted to 5.03 in the experiment with ARHGEF12, Q9NZN5-2 (setting [3]) and 3.59 in the experiment with SNTG1, Q9NSN8 (setting [3]).
As for TIVSWPGTFL [LNX1, Q8TBB1], the pKd result with ARHGEF12, Q9NZN5-2 (setting [2]) is “below the threshold”; with SNTG1, Q9NSN8 (setting [2]), “below the threshold”.
On to QKNKDKEYYV [NRXN3_rs746444206, Q9Y4C0], for which the pKd result with ARHGEF12, Q9NZN5-2 (setting [3]) was “below the threshold”; with SNTG1, Q9NSN8 (setting [3]), 3.53.
For LCKSHAFSHV [PDLIM7, Q9NR12;Q9NR12-1], the pKd result with SNTG1, Q9NSN8 (setting [2]) was “below the threshold”.
Turning to SRRPRTETQV [HPV31-E6, P17386], the pKd with ARHGEF12, Q9NZN5-2 (setting [1]) was 3.86; in the experiment with SNTG1, Q9NSN8 (setting [1]), 4.23.
For EKLSSIESDV [GRIN2B, Q13224], the pKd turned out to be 3.68 with ARHGEF12, Q9NZN5-2 (setting [2]) and 4.8 with SNTG1, Q9NSN8 (setting [2]).
Regarding SPLHSLETSL [ATP2B1, P20020], the pKd with ARHGEF12, Q9NZN5-2 (setting [1]) was 4.88; with SNTG1, Q9NSN8 (setting [1]) it was 4.36.
On to DPRNTQTSQI [ABRAXAS2, Q15018], for which the pKd with ARHGEF12, Q9NZN5-2 (setting [1]) was 4.44; with SNTG1, Q9NSN8 (setting [1]), “below the threshold”.
Regarding TETASVCTKV [SLC23A1, Q9UHI7], the pKd in the experiment with ARHGEF12, Q9NZN5-2 (setting [3]) turned out to be 3.88; with SNTG1, Q9NSN8 (setting [3]), 3.76.
EDEDEQVSAV [RAPGEF2, Q9Y4G8]: the pKd with ARHGEF12, Q9NZN5-2 (setting [2]) amounted to 3.71; in the experiment with SNTG1, Q9NSN8 (setting [2]), 4.29.
With VNKVWDQSSV [CIT, O14578], the negative logarithm of the Kd (pKd) result was “below the threshold” with ARHGEF12, Q9NZN5-2 (setting [1]) and 3.73 with SNTG1, Q9NSN8 (setting [1]).
As for GIFPTLTSPL [SHROOM3, Q8TF72], the pKd with ARHGEF12, Q9NZN5-2 (setting [2]) is 4.26; with SNTG1, Q9NSN8 (setting [2]), “below the threshold”.
Consider ELIQDTSTSFSTTREW [ARAP3_int, Q8WWN8], for which the negative logarithm of the Kd (pKd) entry is reported as “below the threshold” with ARHGEF12, Q9NZN5-2 (setting [4]) and “below the threshold” in the experiment with SNTG1, Q9NSN8 (setting [4]).
Take PKRPFVESNV [TANC2, Q9HCD6]: the pKd entry is “below the threshold” with ARHGEF12, Q9NZN5-2 (setting [1]) and 4.79 with SNTG1, Q9NSN8 (setting [1]).
RGGFGRQTQI [NCBP2L, A6PVI3]: the pKd in the experiment with ARHGEF12, Q9NZN5-2 (setting [3]) was 4.28; in the experiment with SNTG1, Q9NSN8 (setting [3]), “below the threshold”.
Consider LHLHGTGIQV [EPHA7, Q15375], for which the pKd with ARHGEF12, Q9NZN5-2 (setting [3]) was 4.19; in the experiment with SNTG1, Q9NSN8 (setting [3]), 3.57.
As to CNTVTVETVV [MAS1, P04201], the pKd entry is “below the threshold” with ARHGEF12, Q9NZN5-2 (setting [1]) and 3.86 with SNTG1, Q9NSN8 (setting [1]).
For LDSQIQETSI [MAP4, P27816], the pKd in the experiment with ARHGEF12, Q9NZN5-2 (setting [1]) amounted to 4.33; in the experiment with SNTG1, Q9NSN8 (setting [1]), 5.31.
Regarding GGPKEEESPV [SLC16A1, P53985], the pKd result in the experiment with ARHGEF12, Q9NZN5-2 (setting [1]) is “below the threshold”; with SNTG1, Q9NSN8 (setting [1]), 3.99.
For the molecule EDLTKNHDEL [RCN1, Q15293], the pKd in the experiment with ARHGEF12, Q9NZN5-2 (setting [3]) was 3.51; with SNTG1, Q9NSN8 (setting [3]), 3.64.
For the molecule LCALPKVTTV [AGMAT, Q9BSE5], the negative-log Kd (pKd) with ARHGEF12, Q9NZN5-2 (setting [1]) amounted to 4.67; with SNTG1, Q9NSN8 (setting [1]) it was 4.39.
As to GKKSVKHSKI [ACOT6, Q3I5F7], the pKd with ARHGEF12, Q9NZN5-2 (setting [3]) is 3.92; with SNTG1, Q9NSN8 (setting [3]), “below the threshold”.
Take SVVSERISSV [HTR2C, P28335]: the pKd was determined as 4.18 in the experiment with ARHGEF12, Q9NZN5-2 (setting [3]) and 4.06 with SNTG1, Q9NSN8 (setting [3]).
In the same order, the values of GFGEERESIL [KIDINS220, Q9ULH0] are 4.13 and 3.62.
RNCSTNDSLL [ADRB2, P07550]: the pKd entry with ARHGEF12, Q9NZN5-2 (setting [2]) is “below the threshold”; in the experiment with SNTG1, Q9NSN8 (setting [2]) it was “below the threshold”.
Turning to KTSAHHATFV [RGS12, O14924], the pKd with ARHGEF12, Q9NZN5-2 (setting [2]) was determined as 3.82; with SNTG1, Q9NSN8 (setting [2]) it was 3.55.
The corresponding values for HSGSYLVTSV [APC, P25054] are 5.02 and 4.23.
Turning to SSSNSEDTEM [NHERF3, Q5T2W1], the negative logarithm of the Kd (pKd) entry with ARHGEF12, Q9NZN5-2 (setting [2]) is on record as “below the threshold”; with SNTG1, Q9NSN8 (setting [2]) it was “below the threshold”.
As to FVHPILQSAV [PRKCA, P17252], the pKd with ARHGEF12, Q9NZN5-2 (setting [3]) was determined as 4.22; in the experiment with SNTG1, Q9NSN8 (setting [3]) it was 4.35.
As to QGRWDHETIV [TMEM215, Q68D42], the pKd in the experiment with ARHGEF12, Q9NZN5-2 (setting [2]) is 3.71; in the experiment with SNTG1, Q9NSN8 (setting [2]) it was 4.7.
For the molecule TEEEVQDTRL [CFTR, P13569], the pKd was 3.52 in the experiment with ARHGEF12, Q9NZN5-2 (setting [1]) and “below the threshold” with SNTG1, Q9NSN8 (setting [1]).
